Residue numbers refer to the chain shown, from its start.
B1: 556F6B8 (LAG-3 mouse-human chimeric antibody) (antibody, V domains shown)
VH: RVQLKQSGPGLVQPSQSLSITCTVSGFSLIKYGVHWVRQSPGEGLEWLGVIWRGGITDYNAAFMSRLSITKDNSKSQVFFKMNSLQADDTAIYYCAKWDGPLAMDYWGQGTSVTVSS
VL: DIVMTQSHKFLSTSVGDRVSITCKASQDVGTTVAWYQQKPGQSPKLLIYWASTRHTGVPDRFTGSGSGTDFTLTISNVQSEDLADYFCQQYSSYPYTFGGGTKLEIK
notes: also called 556F8B8
B2: 405B8H3 (LAG-3 mouse-human chimeric antibody) (antibody, V domains shown)
VH: QVQLQQSGAELVRPGASVTLSCKASGYTFTDYEMHWVKQTPVHGLEWIGATDPETGNSAYNQKFKGKAIMTADKSSSTAYMELRSLTSEDSAVYYCISTGWNDWGQGTSLTVSS
VL: DIKMTQSPSSMYASLGERVTITCKASQDINSYLSWFQQKPGKSPKTLIYRADRLLDGVPSRFSGSGSGQDYSLTISSLEYGDMGIYYCLQYDEFPYTFGGGTKLEIK
notes: also called mouse-human chimeric antibody 405B8H3
B3: 409B11E12 (LAG-3 mouse-human chimeric antibody) (antibody, V domains shown)
VH: B2 VH with P41T, G56S, N57Y, M70L, S98A
VL: B2 VL with I2L, D52N, G81E
B4: 409D4E10 (LAG-3 mouse-human chimeric antibody) (antibody, V domains shown)
VH: B2 VH with Y27N, G56D, S58T, M70L, A72T, S98T, T99S
VL: B2 VL with D52N, G81E, D92N

Molecular target: T1, hFc tagged monkey LAG-3 protein (cLAG-3-hFc protein) (monkey; human)
T1 construct: Made in HEK293 cells; also called monkey LAG-3 extracellular domain protein; not shown: human IgG Fc fragment (hFc) of the pCpC vector
T1 chain: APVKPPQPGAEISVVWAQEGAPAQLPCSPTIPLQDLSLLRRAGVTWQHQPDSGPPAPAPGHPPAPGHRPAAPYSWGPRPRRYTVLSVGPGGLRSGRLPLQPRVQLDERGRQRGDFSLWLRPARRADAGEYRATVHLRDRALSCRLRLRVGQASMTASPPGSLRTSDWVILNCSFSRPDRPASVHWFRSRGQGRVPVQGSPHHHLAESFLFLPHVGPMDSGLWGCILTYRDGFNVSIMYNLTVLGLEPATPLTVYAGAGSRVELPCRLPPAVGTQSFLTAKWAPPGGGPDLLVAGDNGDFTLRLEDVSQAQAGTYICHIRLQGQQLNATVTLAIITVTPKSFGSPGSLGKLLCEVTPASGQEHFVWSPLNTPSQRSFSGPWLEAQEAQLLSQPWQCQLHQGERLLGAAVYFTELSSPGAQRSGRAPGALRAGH
Assay: ELISA, cLAG-3-hFc coated; 0.0000 nM
Protocol: The plate was sealed with plastic film and incubated overnight at 4° C. The plate was washed 2 times with the plate washing solution (PBS+0.01% Tween20) on the next day, and added with the blocking solution (PBS+0.01% Tween20+1% BSA) and blocked at room temperature for 1-2 hours. The blocking solution was poured out, and the plate was added with 50-100 μl of the antibody sample to be tested to each well, incubated at 37° C. for 1-2 hours, and washed 2-3 times with a plate washing solution (PBS+0.01% Tween20). HRP (horseradish peroxidase) labeled secondary antibody was added, and the plate was incubated at 37° C. for 1-2 hours, and washed 2-3 times with a plate washing solution (PBS+0.01% Tween20). 100 μl of TMB substrate was added to each well. After incubated at room temperature for 15-30 minutes, the plate was added with 100 μl of stop solution (1.0N HCl) to each well.

Binder	OD450
B1	0.19 OD450
B2	0.15 OD450
B3	0.14 OD450
B4	0.18 OD450

Reference: patent publication US20210155689A1 (SHANGHAI PHARMAEXPLORER, published 2021)
